Laboratory results taken from article PMC12824264.

Biological target: BMP9 growth factor domain (GFD) dimer (human) (UniProt Q9UK05)
Test: ELISA; displacement assay: anti-human CD105 antibody coated; sENG(M):BMP9 or sENG(D):BMP9 captured 2 h at room temperature; BMPRII or ActRIIB ECD at 0x, 1x, 5x, 25x, 125x molar excess for 30 min; BMP9 left in the complex detected with biotinylated anti-BMP9

BMP9 growth factor domain (GFD) dimer (human), sequence (Q9UK05 320-429): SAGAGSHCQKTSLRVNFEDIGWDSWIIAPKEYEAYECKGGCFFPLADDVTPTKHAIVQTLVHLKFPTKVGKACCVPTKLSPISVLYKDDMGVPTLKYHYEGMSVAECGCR

percent displacement of sENG from the sENG(D):BMP9 complex at 125-fold molar excess: > 50%
Substance: BMP receptor type II (BMPRII) extracellular domain (from UniProt Q13873 27-150) (domain or fragment)
